± gives the uncertainty stated by the source.
B1: Glucocorticoid receptor, residues 419 to 494; numbered along this chain, P04150 (parent)
chain: KLCLVCSDEASGCHYGVLTCGSCKVFFKRAVEGQHNYLCAGRNDCIIDKIRRKNCPACRYRKCLQAGMNLEARKTK

Variants of: B1
Experiment: abundance fitness (aPCA) (normalised: wild type 0, dead -1); higher = more abundant; growth selection in yeast, the domain comes from the species named
Details: Homo sapiens

Abundance fitness, by site and new letter:
C3: Y -0.764 ± 0.24; W -0.879 ± 0.14
A10: W -0.625 ± 0.074; E -0.287 ± 0.053; G -0.122 ± 0.042; V -0.305 ± 0.047; N -0.274 ± 0.07; C -0.147 ± 0.056; P 0.004 ± 0.049; Y -0.272 ± 0.08; T -0.161 ± 0.048; L -0.066 ± 0.036; I -0.15 ± 0.075; R -0.453 ± 0.042; D -0.251 ± 0.12; S -0.079 ± 0.041; K -0.408 ± 0.092; F -0.362 ± 0.075; Q -0.111 ± 0.05; H -0.235 ± 0.072
G21: N -0.15 ± 0.09; Y -0.031 ± 0.077; I -0.088 ± 0.099; T -0.031 ± 0.046; Q 0.13 ± 0.055; S -0.023 ± 0.04; P -0.008 ± 0.056; L -0.037 ± 0.037; H -0.122 ± 0.072; K 0.008 ± 0.045; M -0.032 ± 0.05; E 0.076 ± 0.042; R -0.086 ± 0.033; C -0.064 ± 0.06; D -0.009 ± 0.062
C13: H 0.112 ± 0.061; W -0.055 ± 0.041; E 0.04 ± 0.04; T 0.003 ± 0.038; S -0.037 ± 0.037; A -0.02 ± 0.038; D -0.008 ± 0.069; L -0.007 ± 0.034; V 0.015 ± 0.035; Q 0.001 ± 0.049; G -0.154 ± 0.033; F -0.005 ± 0.074; M -0.027 ± 0.038; I 0.112 ± 0.064; R -0.025 ± 0.031; K -0.018 ± 0.043; P -0.07 ± 0.047
C6: L -0.992 ± 0.12; Y -0.653 ± 0.13; S -1.22 ± 0.25; R -0.852 ± 0.085; Q -0.805 ± 0.16; I -0.751 ± 0.16; A -0.964 ± 0.15; K -1.01 ± 0.22; W -1.03 ± 0.18; V -1.06 ± 0.15; E -0.941 ± 0.14; P -0.931 ± 0.17; T -1.14 ± 0.24; G -0.934 ± 0.11
K24: Y 0.017 ± 0.06; T -0.096 ± 0.059; R -0.105 ± 0.054; V 0.015 ± 0.059; A -0.019 ± 0.05; M -0.087 ± 0.077; E 0.011 ± 0.079; Q 0.044 ± 0.06; P -0.096 ± 0.072; W -0.037 ± 0.089; F -0.092 ± 0.066; H -0.026 ± 0.069; N -0.028 ± 0.061; G -0.018 ± 0.051; S 0.062 ± 0.055; C 0.011 ± 0.065; D -0.006 ± 0.087; L -0.134 ± 0.045; I -0.245 ± 0.072
L18: N -0.1 ± 0.081; F -0.002 ± 0.067; I 0.035 ± 0.082; V 0 ± 0.041; E -0.045 ± 0.052; D 0.062 ± 0.062; S 0.038 ± 0.05; H -0.012 ± 0.08; Q -0.087 ± 0.05; K -0.088 ± 0.044; P -0.004 ± 0.055; Y 0.098 ± 0.086; G -0.191 ± 0.042; M -0.077 ± 0.056; A 0.097 ± 0.044; T -0.031 ± 0.058; R -0.036 ± 0.036; W -0.01 ± 0.047
H14: Y -0.068 ± 0.075; G -0.187 ± 0.031; D -0.016 ± 0.057; M -0.163 ± 0.049; P -0.24 ± 0.056; S -0.076 ± 0.039; Q -0.077 ± 0.048; R -0.137 ± 0.032; A -0.077 ± 0.035; C -0.128 ± 0.068; K -0.096 ± 0.049; E -0.102 ± 0.041; F -0.088 ± 0.11; N -0.086 ± 0.093; I -0.184 ± 0.069; T -0.161 ± 0.049; L -0.125 ± 0.034; V -0.367 ± 0.042
G16: L -0.558 ± 0.05; M -0.369 ± 0.08; K -0.295 ± 0.055; T -0.264 ± 0.049; A -0.216 ± 0.037; D -0.078 ± 0.064; V -0.738 ± 0.079; P -0.302 ± 0.051; W -0.83 ± 0.13; S -0.182 ± 0.04; Q -0.225 ± 0.049; N 0 ± 0.085; E -0.251 ± 0.05; C -0.483 ± 0.12; H -0.291 ± 0.072; R -0.318 ± 0.04
Y15: T -0.05 ± 0.046; I -0.298 ± 0.084; N 0.004 ± 0.067; E -0.067 ± 0.042; D -0.055 ± 0.049; R -0.152 ± 0.036; H -0.088 ± 0.08; M -0.009 ± 0.045; P -0.134 ± 0.048; A -0.085 ± 0.041; L -0.164 ± 0.037; G -0.096 ± 0.035; C -0.153 ± 0.06; Q -0.08 ± 0.046; V -0.208 ± 0.038; W 0.008 ± 0.049
S11: F -0.127 ± 0.088; H 0.008 ± 0.064; C -0.102 ± 0.07; A -0.043 ± 0.036; P -0.096 ± 0.065; L 0.033 ± 0.036; E 0.054 ± 0.044; D 0.021 ± 0.049; G -0.076 ± 0.036; K -0.005 ± 0.045; V -0.005 ± 0.037; Q 0.047 ± 0.053; M -0.015 ± 0.049; N 0.018 ± 0.07; Y -0.174 ± 0.089; W -0.236 ± 0.05
T19: P -0.791 ± 0.13; A -0.031 ± 0.038; D -0.909 ± 0.31; L -0.184 ± 0.037; R -0.929 ± 0.099; W -0.743 ± 0.11; S 0.034 ± 0.039; Q -0.559 ± 0.067; I -0.057 ± 0.07; G -0.393 ± 0.044; Y -0.697 ± 0.22; V -0.011 ± 0.035; N -0.557 ± 0.14; M -0.176 ± 0.059; E -1.03 ± 0.19; C 0.061 ± 0.053; H -0.311 ± 0.1
V25: E 0.051 ± 0.076; H 0.06 ± 0.069; F -0.005 ± 0.064; I 0.021 ± 0.075; C 0.043 ± 0.063; A 0.045 ± 0.056; D 0.017 ± 0.086; G 0.008 ± 0.054
D8: C -0.105 ± 0.072; L -0.646 ± 0.071; E -0.033 ± 0.048; M -0.216 ± 0.067; N -0.147 ± 0.089; H -0.203 ± 0.094; T -0.195 ± 0.056; K -0.27 ± 0.069; Y -0.409 ± 0.084; I -0.68 ± 0.2; R -0.237 ± 0.036; A 0.037 ± 0.039; W -0.521 ± 0.064; Q -0.035 ± 0.051; V -0.219 ± 0.039; S -0.034 ± 0.038
S22: P -0.06 ± 0.38; F 0.043 ± 0.11; D 0.136 ± 0.3
L4: D 0.035 ± 0.07; P -0.098 ± 0.046; Y -0.029 ± 0.062; S -0.026 ± 0.039; M 0.001 ± 0.042; Q 0.047 ± 0.045; C 0.016 ± 0.049; E 0.024 ± 0.046; H -0.141 ± 0.053; F -0.024 ± 0.065; N -0.01 ± 0.047; R 0.017 ± 0.029; K 0.109 ± 0.044; V -0.052 ± 0.035; T 0.004 ± 0.04; W -0.068 ± 0.041; A -0.096 ± 0.043; G -0.03 ± 0.032
E9: T 0.089 ± 0.045; H -0.052 ± 0.075; Y -0.105 ± 0.072; W 0.062 ± 0.041; L 0.036 ± 0.033; S 0.032 ± 0.036; M 0.042 ± 0.042; F -0.115 ± 0.071; V 0.031 ± 0.035; N 0.12 ± 0.063; C 0.083 ± 0.052; P 0.074 ± 0.047; R 0.04 ± 0.032; I -0.038 ± 0.065; K 0.105 ± 0.057; D -0.015 ± 0.077; Q -0.017 ± 0.056
V5: L -0.611 ± 0.064; E -0.96 ± 0.18; I -0.007 ± 0.051; H -0.848 ± 0.33; T -0.742 ± 0.11; N -0.703 ± 0.23; S -1.03 ± 0.17; W -0.952 ± 0.14; C -0.749 ± 0.15; G -0.732 ± 0.076; F -0.874 ± 0.24; K -1.15 ± 0.32; R -0.669 ± 0.077; M -0.681 ± 0.095; Y -0.631 ± 0.19; P -1.1 ± 0.23
G12: F -0.083 ± 0.071; Q -0.034 ± 0.048; M -0.071 ± 0.042; D -0.003 ± 0.058; L -0.166 ± 0.034; A -0.101 ± 0.041; N -0.093 ± 0.071; E -0.057 ± 0.044; H -0.096 ± 0.11; P -0.318 ± 0.07; K -0.08 ± 0.047; Y -0.206 ± 0.065; W -0.153 ± 0.053; S -0.063 ± 0.04; T -0.069 ± 0.048; C -0.194 ± 0.078; V -0.166 ± 0.035; R -0.074 ± 0.034
S7: L -0.017 ± 0.037; T -0.02 ± 0.051; R -0.048 ± 0.031; N -0.111 ± 0.065; P -0.757 ± 0.11; K 0.032 ± 0.046; Q 0.029 ± 0.046; F -0.045 ± 0.076; Y -0.109 ± 0.053; A 0.098 ± 0.038; D 0 ± 0.053; V -0.374 ± 0.046; I -0.725 ± 0.16; H 0.021 ± 0.09; C -0.046 ± 0.072; M -0.06 ± 0.051; E 0.012 ± 0.042; G 0.012 ± 0.034; W -0.115 ± 0.043
V17: G -0.176 ± 0.036; L -0.16 ± 0.038; F -0.355 ± 0.084; I 0.129 ± 0.095; Y -0.451 ± 0.1; Q -0.194 ± 0.047; H -0.371 ± 0.098; W -0.641 ± 0.084; S -0.172 ± 0.052; C 0.057 ± 0.062; E -0.389 ± 0.062; D -0.405 ± 0.12; M -0.379 ± 0.35; R -0.141 ± 0.049; P -0.215 ± 0.064; K -0.013 ± 0.38
C23: R -0.056 ± 0.36
C20: G -0.805 ± 0.12; K -0.948 ± 0.17; L -1.14 ± 0.17; A -0.837 ± 0.12; Y -0.782 ± 0.23; H -0.918 ± 0.31; T -0.87 ± 0.17; P -0.594 ± 0.12; I -1.11 ± 0.49; W -0.78 ± 0.11; N -0.75 ± 0.26; M -0.651 ± 0.13; F -0.717 ± 0.32; Q -1.04 ± 0.2; S -1.4 ± 0.35; V -1.11 ± 0.2
